In article PMC4300268:

Target: Plu4264 from Photorhabdus luminescens subsp. laumondii TTO1 (Photorhabdus luminescens subsp. laumondii TTO1)
Test: crystal structure

stoichiometry N: 2
Substance: Plu4264 from Photorhabdus luminescens subsp. laumondii TTO1 (natural protein)
